# Data: patent US20130331738A1, “COMPOSITIONS AND METHODS FOR POTENTIATING SONOTHROMBOLYSIS” (Board of Trustees University of Arkansas, priority 2012, published 2013)
# B1: tPA: tissue plasminogen activator (protein, UniProt P00750 36-562, looked up)
# Tissue-type plasminogen …: SYQVICRDEKTQMIYQQHQSWLRPVLRSNRVEYCWCNSGRAQCHSVPVKSCSEPRCFNGGTCQQALYFSDFVCQCPEGFAGKCCEIDTRATCYEDQGISYRGTWSTAESGAECTNWNSSALAQKPYSGRRPDAIRLGLGNHNYCRNPDRDSKPWCYVFKAGKYSSEFCSTPACSEGNSDCYFGNGSAYRGTHSLTESGASCLPWNSMILIGKVYTAQNPSAQALGLGKHNYCRNPDGDAKPWCHVLKNRRLTWEYCDVPSCSTCGLRQYSQPQFRIKGGLFADIASHPWQAAIFAKHRRSPGERFLCGGILISSCWILSAAHCFQERFPPHHLTVILGRTYRVVPGEEEQKFEVEKYIVHKEFDDDTYDNDIALLQLKSDSSRCAQESSVVRTVCLPPADLQLPDWTECELSGYGKHEALSPFYSERLKEAHVRLYPSSRCTSQHLLNRTVTDNMLCAGDTRSGGPQANLHDACQGDSGGPLVCLNDGRMTLVGIISWGLGCGQKDVPGVYTKVTNYLDWIRDNMRP
# Test system: rigid clots (pooled rabbit plasma, fresh rabbit blood cells, thrombin)
# Assay: Sonothrombolysis of aged and rigid clots, 1 MHz pulsed ultrasound in a Mylar flow chamber
# Details: 0.1 mg/mL of tPA and/or MBs at about 0.5-2.5×10^8 MB/mL
# Method: To assess the effect of CPDL and/or degradable starch nanoparticles on the efficacy of sonothrombolysis, the following experiment was conducted. Rigid clots were formed by mixing pooled rabbit plasma with fresh rabbit blood cells and 30 U/mL of thrombin. The clots were incubated at 37° C. in glass tubes for 24 h followed by curing at 5° C. for 24 h. The total clot volumes and mass densities of each main clot were measured, and then 9-11 mg pieces were cut from the main clot. Each clot piece was weighed and then insonated with 1 MHz, pulsed ultrasound in a Mylar flow chamber through which fresh rabbit serum containing tPA and/or microbubbles (MBs) were introduced continuously. Sonothrombolysis efficacy was quantified as the % of clot mass lysed in 15 min. A stable nanoemulsion of CPDL at a concentration ranging from about 0.003-0.06% w/V, and/or 50-200 nm degradable starch nanoparticles were added to the system to enhance sonothrombolysis efficacy.
molecule,measurement,value
B1,efficacy of sonothrombolysis for more rigid and aged clots,reduced markedly
